This note sets out measurements from patent publication US20240132591A1 (PANDION OPERATIONS, published 2024).

The target in assay [1] is T1, Insulin (UniProt P01308 25-54; P01308 90-110).
T1 construct: Polyreactivity antigen; mature insulin has A and B chains; also called human insulin
Put plainly: ELISA on insulin-coated plate. For orientation: In an ELISA, binding on a coated surface is turned into a signal by an enzyme label.

Assay [2] concerns the target T1, Insulin. Put plainly: ELISA on insulin-coated plate, 100 nM. How it is done: Non-specific DNA and Insulin binding is predictive of poor pharmacokinetics (PK). An immunosorbent plate was coated with dsDNA at a concentration of 1 μg/mL or Insulin at 5 μg/mL in PBS pH 7.4, 75 μl/well, and incubated overnight at 4° C. Wells were washed with PBS pH 7.4 containing 0.05% Tween-20 (wash buffer) three times, and then blocked with 200 μl/well 1% BSA in PBS pH 7.4 (block buffer) for two hours at room temperature. […] The diluted material was added to the DNA/insulin coated plate at 75 μl/well for 1 hour at room temperature. After three washes with wash buffer, a donkey anti-human FcY HRP conjugated polyclonal antibody, diluted to 1:5000 in assay buffer, was added to the plate at 75 μl/well for 1 hr at room temperature. After three washes with wash buffer and three washes with wash buffer (with no tween-20), the assay was developed with TMB, and stopped with 1N HCL. OD 450 nm was measured. The experiment included appropriate controls for non-specific binding of test articles to the plate/block in the absence of DNA or insulin.

The next assay addresses T2, Human MAdCAM (human, UniProt Q13477 19-317, limits assumed).
T2 construct: also called huMAdCAM; human MAdCAM-1
T2 sequence (looked up): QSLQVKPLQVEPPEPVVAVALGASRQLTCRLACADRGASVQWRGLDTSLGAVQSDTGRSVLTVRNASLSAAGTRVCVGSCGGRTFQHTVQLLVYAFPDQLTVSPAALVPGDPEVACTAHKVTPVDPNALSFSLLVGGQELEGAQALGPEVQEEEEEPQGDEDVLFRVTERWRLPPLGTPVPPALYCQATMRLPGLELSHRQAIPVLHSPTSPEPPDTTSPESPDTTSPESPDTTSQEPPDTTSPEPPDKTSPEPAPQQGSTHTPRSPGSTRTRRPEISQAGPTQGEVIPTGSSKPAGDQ
Kind of assay: BLI Octet, AHC capture. On the technique in general: In BLI a coated tip is dipped into the sample, and binding shifts an interference pattern.

B1: MIAB204 (Fc fusion)
chain: APTSSSTKKTQLQLEHLLLDLQMILNGINNYKNPKLTRMLTFKFYMPKKATELKHLQCLEEELKPLEEALNLAPSKNFHLRPRDLISDINVIVLELKGSETTFMCEYADETATIVEFINRWITFSQSIISTLTGGGGSGGGGSGGGGSGGGGSDKTHTCPPCPAPEAAGAPSVFLFPPKPKDTLMISRTPEVTCVVVDVSHEDPEVKFNWYVDGVEVHNAKTKPREEQYNSTYRVVSVLTVLHQDWLNGKEYKCKVSNKALPAPIEKTISKAKGQPREPQVYTLPPSREEMTKNQVSLTCLVKGFYPSDIAVEWESNGQPENNYKTTPPVLDSDGSFFLYSKLTVDKSRWQQGNVFSCSVMHEALHNHYTQKSLSLSPGGGGGSGGGGSGGGGSEVQLLESGGGLVQPGGSLRLSCAASGFTFSDFWMHWVRQAPGKGLEWISYISGDSGYTNYADSVKGRFTISRDNSKNTLYLQMNSLRAEDTAVYYCARDRPYYYYMDVWGKGTTVTVSSGGGGSGGGGSGGGGSGGGGSDIQMTQSPSSLSASVGDRVTITCRASQSVSRSLAWYQQKPGKAPKLLIYAASSLQSGVPSRFSGSGSGTDFTLTISSLQPEDFATYYCQQYKSYPVTFGQGTKVEIK
Take B1: the binding result with Insulin [1] is recorded as “no binding (tested: 100 nM)”. The molecule also displayed an Insulin polyreactivity score in the assay with Insulin [2] of 8.43.

B2: MIAB148 (antibody, human IgG1, kappa)
heavy: EVQLLESGGGLVQPGGSLRLSCAASGFTFSDFWMHWVRQAPGKGLEWISYISGDSGYTNYADSVKGRFTISRDNSKNTLYLQMNSLRAEDTAVYYCARDRPYYYYMDVWGKGTTVTVSSASTKGPSVFPLAPSSKSTSGGTAALGCLVKDYFPEPVTVSWNSGALTSGVHTFPAVLQSSGLYSLSSVVTVPSSSLGTQTYICNVNHKPSNTKVDKKVEPKSCDKTHTCPPCPAPEAAGAPSVFLFPPKPKDTLMISRTPEVTCVVVDVSHEDPEVKFNWYVDGVEVHNAKTKPREEQYNSTYRVVSVLTVLHQDWLNGKEYKCKVSNKALPAPIEKTISKAKGQPREPQVYTLPPSREEMTKNQVSLTCLVKGFYPSDIAVEWESNGQPENNYKTTPPVLDSDGSFFLYSKLTVDKSRWQQGNVFSCSVMHEALHNHYTQKSLSLSPGGGGGSAPTSSSTKKTQLQLEHLLLDLQMILNGINNYKNPKLTRMLTFKFYMPKKATELKHLQCLEEELKPLEEALNLAPSKNFHLRPRDLISDINVIVLELKGSETTFMCEYADETATIVEFINRWITFSQSIISTLT
light: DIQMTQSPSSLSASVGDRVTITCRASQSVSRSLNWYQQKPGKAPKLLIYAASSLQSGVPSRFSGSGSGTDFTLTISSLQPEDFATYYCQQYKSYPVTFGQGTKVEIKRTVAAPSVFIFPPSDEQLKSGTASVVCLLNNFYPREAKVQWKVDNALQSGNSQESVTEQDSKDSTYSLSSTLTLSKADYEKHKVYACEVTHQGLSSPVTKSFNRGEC
B2: in the assay with Human MAdCAM, the Kd (usually the concentration at which binding is half-saturated) was determined as 2690 nM; the koff (usually the rate constant with which the complex falls apart) stood at 0.314 s⁻¹; the kon – broadly, the rate constant with which the complex forms – was found to be 117000 M⁻¹ s⁻¹. For the same molecule, the binding result in the assay with Insulin [1] is listed as “no binding (tested: 100 nM)”. This molecule also came in with an Insulin polyreactivity score with Insulin [2] of 3.63.

B3: MIAB155 (antibody, human IgG1, kappa)
heavy: EVQLLESGGGLVQPGGSLRLSCAASGFTFSDFWMHWVRQAPGKGLEWISYISGDSGYTNYADSVKGRFTISRDNSKNTLYLQMNSLRAEDTAVYYCARDRPYYYYMDVWGKGTTVTVSSASTKGPSVFPLAPSSKSTSGGTAALGCLVKDYFPEPVTVSWNSGALTSGVHTFPAVLQSSGLYSLSSVVTVPSSSLGTQTYICNVNHKPSNTKVDKKVEPKSCDKTHTCPPCPAPEAAGAPSVFLFPPKPKDTLMISRTPEVTCVVVDVSHEDPEVKFNWYVDGVEVHNAKTKPREEQYNSTYRVVSVLTVLHQDWLNGKEYKCKVSNKALPAPIEKTISKAKGQPREPQVYTLPPSREEMTKNQVSLTCLVKGFYPSDIAVEWESNGQPENNYKTTPPVLDSDGSFFLYSKLTVDKSRWQQGNVFSCSVMHEALHNHYTQKSLSLSPGGGGGSAPTSSSTKKTQLQLEHLLLDLQMILNGINNYKNPKLTRMLTFKFYMPKKATELKHLQCLEEELKPLEEALNLAPSKNFHLRPRDLISDINVIVLELKGSETTFMCEYADETATIVEFINRWITFSQSIISTLT
light: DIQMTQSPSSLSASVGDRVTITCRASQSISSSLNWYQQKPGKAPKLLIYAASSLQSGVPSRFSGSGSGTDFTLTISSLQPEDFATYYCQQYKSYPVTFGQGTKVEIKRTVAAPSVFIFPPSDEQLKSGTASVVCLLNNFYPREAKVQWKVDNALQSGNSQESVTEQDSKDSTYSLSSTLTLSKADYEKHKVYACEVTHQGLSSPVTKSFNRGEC
On to B3, for which the binding result with Insulin [1] is on record as “no binding (tested: 100 nM)”. In the assay with Insulin [2], this molecule yielded an Insulin polyreactivity score of 1.99.

B4: MIAB139 (antibody)
heavy: EVQLLESGGGLVQPGGSLRLSCAASGFTFSDFWMHWVRQAPGKGLEWISYISGDSGYTNYADSVKGRFTISRDNSKNTLYLQMNSLRAEDTAVYYCARDRPYYYYMDVWGKGTTVTVSSASTKGPSVFPLAPSSKSTSGGTAALGCLVKDYFPEPVTVSWNSGALTSGVHTFPAVLQSSGLYSLSSVVTVPSSSLGTQTYICNVNHKPSNTKVDKKVEPKSCDKTHTCPPCPAPEAAGAPSVFLFPPKPKDTLMISRTPEVTCVVVDVSHEDPEVKFNWYVDGVEVHNAKTKPREEQYNSTYRVVSVLTVLHQDWLNGKEYKCKVSNKALPAPIEKTISKAKGQPREPQVYTLPPSREEMTKNQVSLTCLVKGFYPSDIAVEWESNGQPENNYKTTPPVLDSDGSFFLYSKLTVDKSRWQQGNVFSCSVMHEALHNHYTQKSLSLSPGGGGGSAPTSSSTKKTQLQLEHLLLDLQMILNGINNYKNPKLTRMLTFKFYMPKKATELKHLQCLEEELKPLEEALNLAPSKNFHLRPRDLISDINVIVLELKGSETTFMCEYADETATIVEFINRWITFSQSIISTLT
light: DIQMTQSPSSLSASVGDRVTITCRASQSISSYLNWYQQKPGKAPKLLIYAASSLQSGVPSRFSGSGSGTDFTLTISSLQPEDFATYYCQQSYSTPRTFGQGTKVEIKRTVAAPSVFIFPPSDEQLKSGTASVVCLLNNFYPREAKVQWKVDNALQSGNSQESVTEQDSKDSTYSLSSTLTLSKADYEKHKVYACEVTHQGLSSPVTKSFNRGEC
Consider B4, for which the binding result with Insulin [1] is given as “no binding (tested: 100 nM)”. Moreover, the Insulin polyreactivity score with Insulin [2] came out at 2.08.

B5: MIAB158 (antibody, human IgG1, kappa)
heavy: EVQLLESGGGLVQPGGSLRLSCAASGFTFSDFWMHWVRQAPGKGLEWISYISGDSGYTNYADSVKGRFTISRDNSKNTLYLQMNSLRAEDTAVYYCARDRPYYYYMDVWGKGTTVTVSSASTKGPSVFPLAPSSKSTSGGTAALGCLVKDYFPEPVTVSWNSGALTSGVHTFPAVLQSSGLYSLSSVVTVPSSSLGTQTYICNVNHKPSNTKVDKKVEPKSCDKTHTCPPCPAPEAAGAPSVFLFPPKPKDTLMISRTPEVTCVVVDVSHEDPEVKFNWYVDGVEVHNAKTKPREEQYNSTYRVVSVLTVLHQDWLNGKEYKCKVSNKALPAPIEKTISKAKGQPREPQVYTLPPSREEMTKNQVSLTCLVKGFYPSDIAVEWESNGQPENNYKTTPPVLDSDGSFFLYSKLTVDKSRWQQGNVFSCSVMHEALHNHYTQKSLSLSPGGGGGSAPTSSSTKKTQLQLEHLLLDLQMILNGINNYKNPKLTRMLTFKFYMPKKATELKHLQCLEEELKPLEEALNLAPSKNFHLRPRDLISDINVIVLELKGSETTFMCEYADETATIVEFINRWITFSQSIISTLT
light: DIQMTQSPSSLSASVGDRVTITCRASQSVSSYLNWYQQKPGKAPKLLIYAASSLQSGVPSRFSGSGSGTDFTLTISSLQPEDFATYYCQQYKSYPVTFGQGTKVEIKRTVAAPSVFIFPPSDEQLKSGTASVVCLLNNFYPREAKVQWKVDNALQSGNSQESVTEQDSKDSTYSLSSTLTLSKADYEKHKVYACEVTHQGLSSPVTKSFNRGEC
Take B5: the binding result with Insulin [1] was “no binding (tested: 100 nM)”. Moreover, the Insulin polyreactivity score with Insulin [2] amounted to 2.67.

B6: MIAB129 (antibody, human IgG1, kappa)
heavy: EVQLLESGGGLVQPGGSLRLSCAASGFTFSDFWMHWVRQAPGKGLEWISYISGDSGYTNYADSVKGRFTISRDNSKNTLYLQMNSLRAEDTAVYYCARDRPGYYYMDVWGKGTTVTVSSASTKGPSVFPLAPSSKSTSGGTAALGCLVKDYFPEPVTVSWNSGALTSGVHTFPAVLQSSGLYSLSSVVTVPSSSLGTQTYICNVNHKPSNTKVDKKVEPKSCDKTHTCPPCPAPEAAGAPSVFLFPPKPKDTLMISRTPEVTCVVVDVSHEDPEVKFNWYVDGVEVHNAKTKPREEQYNSTYRVVSVLTVLHQDWLNGKEYKCKVSNKALPAPIEKTISKAKGQPREPQVYTLPPSREEMTKNQVSLTCLVKGFYPSDIAVEWESNGQPENNYKTTPPVLDSDGSFFLYSKLTVDKSRWQQGNVFSCSVMHEALHNHYTQKSLSLSPGGGGGSAPTSSSTKKTQLQLEHLLLDLQMILNGINNYKNPKLTRMLTFKFYMPKKATELKHLQCLEEELKPLEEALNLAPSKNFHLRPRDLISDINVIVLELKGSETTFMCEYADETATIVEFINRWITFSQSIISTLT
light: DIQMTQSPSSLSASVGDRVTITCRASQSVSRSLAWYQQKPGKAPKLLIYAASSLQSGVPSRFSGSGSGTDFTLTISSLQPEDFATYYCQQYKSYPVTFGQGTKVEIKRTVAAPSVFIFPPSDEQLKSGTASVVCLLNNFYPREAKVQWKVDNALQSGNSQESVTEQDSKDSTYSLSSTLTLSKADYEKHKVYACEVTHQGLSSPVTKSFNRGEC
With B6, the binding result in the assay with Insulin [1] is “no binding (tested: 100 nM)”. The Insulin polyreactivity score with Insulin [2] came to 2.43.

B7: MIAB170 (antibody, human IgG1, kappa)
heavy: EVQLLESGGGLVQPGGSLRLSCAASGFTFSDFWMHWVRQAPGKGLEWISYISGDSGYTNYADSVKGRFTISRDNSKNTLYLQMNSLRAEDTAVYYCARDRPYYYWMDVWGKGTTVTVSSASTKGPSVFPLAPSSKSTSGGTAALGCLVKDYFPEPVTVSWNSGALTSGVHTFPAVLQSSGLYSLSSVVTVPSSSLGTQTYICNVNHKPSNTKVDKKVEPKSCDKTHTCPPCPAPEAAGAPSVFLFPPKPKDTLMISRTPEVTCVVVDVSHEDPEVKFNWYVDGVEVHNAKTKPREEQYNSTYRVVSVLTVLHQDWLNGKEYKCKVSNKALPAPIEKTISKAKGQPREPQVYTLPPSREEMTKNQVSLTCLVKGFYPSDIAVEWESNGQPENNYKTTPPVLDSDGSFFLYSKLTVDKSRWQQGNVFSCSVMHEALHNHYTQKSLSLSPGGGGGSAPTSSSTKKTQLQLEHLLLDLQMILNGINNYKNPKLTRMLTFKFYMPKKATELKHLQCLEEELKPLEEALNLAPSKNFHLRPRDLISDINVIVLELKGSETTFMCEYADETATIVEFINRWITFSQSIISTLT
light: DIQMTQSPSSLSASVGDRVTITCRASQSVSRSLAWYQQKPGKAPKLLIYAASSLQSGVPSRFSGSGSGTDFTLTISSLQPEDFATYYCQQYKSYPVTFGQGTKVEIKRTVAAPSVFIFPPSDEQLKSGTASVVCLLNNFYPREAKVQWKVDNALQSGNSQESVTEQDSKDSTYSLSSTLTLSKADYEKHKVYACEVTHQGLSSPVTKSFNRGEC
On to B7, for which the binding result with Human MAdCAM is listed as “no binding (tested: 1 µM)”; in the assay with Insulin [1] it was “no binding (tested: 100 nM)”. For the same molecule, the Insulin polyreactivity score with Insulin [2] is 4.73.
